The target of the assay is T1, DsbA C33S (Escherichia coli, UniProt P0AEG4 20-208, C33S).
T1 sequence (looked up): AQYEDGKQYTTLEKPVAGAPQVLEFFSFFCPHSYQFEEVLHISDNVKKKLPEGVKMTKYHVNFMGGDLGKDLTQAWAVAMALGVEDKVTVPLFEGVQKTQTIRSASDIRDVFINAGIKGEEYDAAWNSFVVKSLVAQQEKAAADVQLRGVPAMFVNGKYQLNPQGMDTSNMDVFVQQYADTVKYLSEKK
Put plainly: absorbance titration at 500 nm.

B1: His-tagged "wildtype" DsbB containing mutations of nonessential cysteines (C8A, C49V) (enzyme, Escherichia coli, UniProt P0A6M2 1-176, looked up)
chain: MLRFLNQASQGRGAWLLMAFTALALELTALWFQHVMLLKPCVLCIYERVALFGVLGAALIGAIAPKTPLRYVAMVIWLYSAFRGVQLTYEHTMLQLYPSPFATCDFMVRFPEWLPLDKWVPQVFVASGDCAERQWDFLGLEMPQWLLGIFIAYLIVAVLVVISQPFKAKKRDLFGR
As to B1, the binding result is “binds”.

The record behind these values is PMC2880403 (Journal of molecular biology, 2010).
